The chains are these.
B1: humanized antibody molecule HA-I-A (antibody, human IgG1, kappa, L234A L235A, V domains shown)
VH: QVQLVESGGGLVKPGGSLRLSCAASGFTFSDYYMFWVRQAPGKGLEWVATISDGGTYTYYPDSVKGRFTISRDNAKNSLYLQMNSLRAEDTAVYYCARDGGYVSSPEAMDYWGQGTLVTVSS
VL: DIVLTQSPSSLSASVGDRVTITCRASQDISNYLNWYQQKPGKAPKLLIYYTSRLHSGVPSRFSGSGSGTDFTFTISSLQPEDIATYYCQQGNTLPPTFGGGTKVEIKR
notes: anti-IL-11 monoclonal antibody HA-I-A
B2: murine antibody molecule MA-III (mouse IgG1 / mouse Ckappa) (antibody, V domains shown)
VH: EVKLEQSGAEVVKPGALVKMSCKASGYTFTSYWMHWVKQRPGQGLEWIGVIDPSDSYTTYNQKFKGKATLTVDTSSSTGYMQLSSLTSEDSAVYYCSQYGYDVNWYFDVWGAGTTVTVSS
VL: DIVMTQTTLSLPVSLGDQASISCRSSQSIVHSNGNTYLEWYLQKPGQSPKLLIYEVSNRFSGVPDRFSGSGSGTDFTLKISRVEAEDLGVYYCFQGSHVPWTFGGGTKLEIKA
notes: also called murine anti-IL-11 monoclonal antibody MA-III
B3: murine antibody molecule MA-I (mouse IgG1 / mouse Ckappa) (antibody)
heavy: EVKLEESGGGLVKPGGSLKLSCAASGFTFSDYYMFWVRQTPEKRLEWVATISDGGTYTYYPDSVKGRFTISRDNAKNNLYLQMTSLKSEDTAMYYCARDGGYVSSPEAMDYWGQGTSVTVSSAKTTPPSVYPLAPGSAAQTNSMVTLGCLVKGYFPEPVTVTWNSGSLSSGVHTFPAVLQSDLYTLSSSVTVPSSTWPSETVTCNVAHPASSTKVDKKIVPRDCGCKPCICTVPEVSSVFIFPPKPKDVLTITLTPKVTCVVVDISKDDPEVQFSWFVDDVEVHTAQTQPREEQFNSTFRSVSELPIMHQDWLNGKEFKCRVNSAAFPAPIEKTISKTKGRPKAPQVYTIPPPKEQMAKDKVSLTCMITDFFPEDITVEWQWNGQPAENYKNTQPIMDTDGSYFVYSKLNVQKSNWEAGNTFTCSVLHEGLHNHHTEKSLSHSPG
light: DIVLTQSTSSLSASLGDRVTISCRASQDISNYLNWYQQKPDGTVKLLIYYTSRLHSGVPSRFSGSGSGTDYSLTISNLEQEDIATYFCQQGNTLPPTFGGGTKLEIKADAAPTVSIFPPSSEQLTSGGASVVCFLNNFYPKDINVKWKIDGSERQNGVLNSWTDQDSKDSTYSMSSTLTLTKDEYERHNSYTCEATHKTSTSPIVKSFNRNEC
notes: also called murine anti-IL-11 monoclonal antibody MA-I
B4: murine antibody molecule MA-II (mouse IgG1 / mouse Ckappa) (antibody)
heavy: B3 heavy
light: B3 light with P96W
notes: also called murine anti-IL-11 monoclonal antibody MA-II
B5: murine antibody molecule MA-IV (mouse IgG1 / mouse Ckappa) (antibody, V domains shown)
VH: EVQLEESGGGLVKPGGSLKLSCVASGFTFSDYYMFWVRQTPEKRLEWVATISDGGSYSYYPDSVKGRFTISRDNAKNNLYLQMSSLRSEDTAMYYCARDGGYISSPEAMDYWGQGTSVTVSS
VL: DIVLTQSTSSLSASLGDRVTISCRASQDISNYLNWYQQKPDGTVKLLIYYTSRLHSGVPSRFSGSGSGTDYSLTISNLEQEDIATYFCQQGNTLPPTFGGGTKLEIKA
notes: also called murine anti-IL-11 monoclonal antibody MA-IV
B6: humanized antibody molecule HA-I-C (antibody, human IgG1, kappa, L234A L235A, V domains shown)
VH: B1 VH
VL: B1 VL with P44V, F71Y, Y87F
B7: humanized antibody molecule HA-I-D (antibody, human IgG1, kappa, L234A L235A, V domains shown)
VH: B1 VH with V93M, L117S
VL: B1 VL with K42G, P44V, F71Y, Y87F
B8: humanized antibody molecule HA-I-B (antibody, human IgG1, kappa, L234A L235A, V domains shown)
VH: B1 VH with A49S
VL: B1 VL with F71Y
B9: chimeric antibody CA-I (antibody, human IgG1, kappa, L234A L235A)
heavy: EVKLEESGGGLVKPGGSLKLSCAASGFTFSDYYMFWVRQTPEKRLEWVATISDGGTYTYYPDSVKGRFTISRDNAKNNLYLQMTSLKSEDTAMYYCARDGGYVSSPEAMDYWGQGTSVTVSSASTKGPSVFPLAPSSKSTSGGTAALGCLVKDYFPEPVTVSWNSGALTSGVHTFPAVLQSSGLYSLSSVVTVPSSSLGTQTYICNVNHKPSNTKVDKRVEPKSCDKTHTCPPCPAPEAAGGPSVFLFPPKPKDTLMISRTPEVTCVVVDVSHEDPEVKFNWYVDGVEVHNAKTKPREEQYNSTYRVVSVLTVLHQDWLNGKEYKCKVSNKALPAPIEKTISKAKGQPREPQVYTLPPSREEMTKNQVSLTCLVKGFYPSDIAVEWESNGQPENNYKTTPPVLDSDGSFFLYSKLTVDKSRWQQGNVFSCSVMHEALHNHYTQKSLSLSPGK
light: DIVLTQSTSSLSASLGDRVTISCRASQDISNYLNWYQQKPDGTVKLLIYYTSRLHSGVPSRFSGSGSGTDYSLTISNLEQEDIATYFCQQGNTLPPTFGGGTKLEIKRTVAAPSVFIFPPSDEQLKSGTASVVCLLNNFYPREAKVQWKVDNALQSGNSQESVTEQDSKDSTYSLSSTLTLSKADYEKHKVYACEVTHQGLSSPVTKSFNRGEC
notes: Variable regions of MA-I on human IgG1 and human Ckappa constant regions
B10: chimeric antibody CA-II (antibody, human IgG1, kappa, L234A L235A)
heavy: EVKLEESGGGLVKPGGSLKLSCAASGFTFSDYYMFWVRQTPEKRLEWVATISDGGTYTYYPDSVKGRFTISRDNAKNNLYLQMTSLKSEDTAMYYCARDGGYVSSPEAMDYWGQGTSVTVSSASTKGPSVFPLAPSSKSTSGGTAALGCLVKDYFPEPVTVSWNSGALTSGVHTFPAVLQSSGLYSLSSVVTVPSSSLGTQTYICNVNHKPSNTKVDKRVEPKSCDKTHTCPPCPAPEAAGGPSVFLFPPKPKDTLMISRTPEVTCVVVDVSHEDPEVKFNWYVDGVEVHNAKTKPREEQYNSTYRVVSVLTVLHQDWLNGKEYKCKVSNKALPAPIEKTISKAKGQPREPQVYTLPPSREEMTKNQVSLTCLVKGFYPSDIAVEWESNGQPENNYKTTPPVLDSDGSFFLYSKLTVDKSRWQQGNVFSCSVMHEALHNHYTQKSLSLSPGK
light: B9 light with P96W
notes: Variable regions of MA-II on human IgG1 and human Ckappa constant regions
B11: humanized antibody molecule HA-II-B (antibody, human IgG1, kappa, L234A L235A, V domains shown)
VH: B1 VH
VL: B1 VL with F71Y, P96W
B12: humanized antibody molecule HA-II-A (antibody, human IgG1, kappa, L234A L235A, V domains shown)
VH: B1 VH
VL: B1 VL with P96W
B13: humanized antibody molecule HA-II-C (antibody, human IgG1, kappa, L234A L235A, V domains shown)
VH: B1 VH with A49S
VL: B1 VL with F71Y, P96W
B14: humanized antibody molecule HA-II-D (antibody, human IgG1, kappa, L234A L235A, V domains shown)
VH: B1 VH with V93M, L117S
VL: B1 VL with K42G, A43T, P44V, F71Y, Y87F, P96W

Where a chain is given by its changes, count along the chain named.

As usually defined, the EC50 is the concentration needed to bring the measured effect to its halfway point. What is called IC50 is the concentration at which inhibition is half-maximal.

One assay deals with T1, cynomolgus monkey IL-11 (cynomolgus monkey, UniProt P20808 22-199, limits assumed).
T1 construct: Bought reagent; also called IL-11 (Cynomolgus)
T1 sequence (looked up): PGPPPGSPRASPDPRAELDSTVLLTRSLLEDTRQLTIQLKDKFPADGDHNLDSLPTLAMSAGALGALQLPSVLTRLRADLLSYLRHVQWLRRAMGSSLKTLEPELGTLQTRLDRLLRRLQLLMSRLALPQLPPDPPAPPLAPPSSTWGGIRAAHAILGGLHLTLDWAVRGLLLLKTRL
Put plainly: ELISA, cynomolgus monkey IL-11 coated, goat anti-human IgG Fab HRP detection. (In general: ELISA stands for enzyme-linked immunosorbent assay.)
B1 showed an EC50 of 0.239 µg/mL.

The next assay has as its target T2, IL-11-Fc antigen (human, UniProt P20809 22-199, limits assumed).
T2 construct: The construct is not described; not shown: Fc part
T2 sequence (looked up): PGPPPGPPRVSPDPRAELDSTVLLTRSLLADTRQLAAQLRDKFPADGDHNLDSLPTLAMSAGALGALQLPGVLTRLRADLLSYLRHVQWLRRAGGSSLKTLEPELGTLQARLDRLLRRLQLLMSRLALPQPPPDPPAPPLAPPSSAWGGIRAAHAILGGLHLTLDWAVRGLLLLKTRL
Put plainly: competition ELISA: IL-11-Fc coated, competitor IL-11RA-Fc (IgG4 type) at 0.5 ug/mL, anti-human IgG4-HRP detection.
As to B2, the IC50 came to 0.421 µg/mL.

B3 had a 50% inhibitory concentration (IC50) of 0.331 µg/mL.

Turning to B4, the half-inhibitory concentration (IC50) was determined as 0.378 µg/mL.

Take B5: the IC50 worked out at 0.778 µg/mL.

The next assay addresses T3, IL-11-mFc ligand protein (human, UniProt P20809 22-199).
T3 construct: The construct is not described; also called IL-11 ligand protein; not shown: mFc part (detected with goat anti-mouse IgG)
T3 sequence (looked up): T2 sequence (looked up)
Put plainly: flow cytometry: inhibition of IL-11-mFc binding to IL-11RA on BaF/3-IL-11RA cells, goat anti-mouse IgG-FITC detection. Background: Flow cytometry measures light scatter and fluorescence of single cells or particles in a stream.
B2 displayed a half-inhibitory concentration (IC50) of 19.1 µg/mL.

As to B3, the IC50 came to 3.3 µg/mL.

B4 displayed a half-inhibitory concentration (IC50) of 11.1 µg/mL.

With B5, the IC50 is 59.1 µg/mL.

Another assay addresses T4, human IL-11 (human, UniProt P20809 22-199, limits assumed).
T4 sequence (looked up): T2 sequence (looked up)
Put plainly: cell-based or functional assay.
On to B6, for which the “IC50, reporter gene (BaF/3-GP130-STAT3-Luc cells stimulated with IL-11 protein, luciferase)” value (shortened to “IC50, reporter gene”) came to 0.152 µg/mL.

For B7, the “IC50, reporter gene” value was determined as 0.465 µg/mL.

On to B1, for which the “IC50, reporter gene” value was found to be 0.045 µg/mL.

For B8, the “IC50, reporter gene” value is 0.103 µg/mL.

The target in the next assay is T4, human IL-11. Put plainly: ELISA, IL-11 coated, goat anti-human IgG Fab HRP detection.
The molecule B9 had an EC50 of 0.0226 µg/mL.

The molecule B10 showed an EC50 of 0.0464 µg/mL.

For the molecule B6, the EC50 was 0.0252 µg/mL.

The molecule B11 had a concentration for a half-maximal effect (EC50) of 0.0883 µg/mL.

As to B12, the EC50 amounted to 0.102 µg/mL.

In the case of B7, the half-maximal effective concentration (EC50) was 0.0261 µg/mL.

The molecule B1 yielded an EC50 of 0.0204 µg/mL.

B13 gave a 50% effective concentration (EC50) of 0.0849 µg/mL.

Molecule B8 registered an EC50 of 0.0232 µg/mL.

The molecule B14 displayed an EC50 of 0.0585 µg/mL.

For another assay, the target named is T4, human IL-11. Put plainly: ELISA, human IL-11 coated, goat anti-human IgG Fab HRP detection.
B1 displayed an EC50 of 0.0106 µg/mL.

The next assay addresses T4, human IL-11. Put plainly: ELISA, IL-11 coated, goat anti-mouse IgG-HRP detection.
With B2, the EC50 worked out at 0.00379 µg/mL.

In turn, B3 came in with an EC50 of 0.00341 µg/mL.

With B4, the EC50 was found to be 0.00372 µg/mL.

Molecule B5 yielded an EC50 of 0.00425 µg/mL.

The target of another assay is T3, IL-11-mFc ligand protein. The experiment in a line: cell-based or functional assay.
Take B6: the “IC50 of inhibition of TIMP-1 secretion by MRC-5 cells stimulated with IL-11-mFc” value (“IC50 of inhibition of TIMP-1 secretion” below) was 0.343 µg/mL.

As to B7, the “IC50 of inhibition of TIMP-1 secretion” value is 0.657 µg/mL.

In the case of B1, the “IC50 of inhibition of TIMP-1 secretion” value worked out at 0.101 µg/mL.

For the molecule B8, the “IC50 of inhibition of TIMP-1 secretion” value was determined as 0.19 µg/mL.

A further assay deals with T5, rat IL-11 (rat, UniProt Q99MF5 22-199, limits assumed).
T5 construct: Bought reagent; also called IL-11 (Rat)
T5 sequence (looked up): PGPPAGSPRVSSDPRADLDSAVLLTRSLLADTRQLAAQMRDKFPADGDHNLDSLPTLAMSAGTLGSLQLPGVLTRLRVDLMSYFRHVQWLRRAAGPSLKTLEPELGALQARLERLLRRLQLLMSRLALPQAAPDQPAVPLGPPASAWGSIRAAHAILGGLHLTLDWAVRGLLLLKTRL
Put plainly: ELISA, rat IL-11 coated, goat anti-human IgG Fab HRP detection.
Turning to B1, the EC50 was found to be 0.0179 µg/mL.

The target of a further assay is T3, IL-11-mFc ligand protein. Put plainly: flow cytometry: inhibition of IL-11-mFc binding to IL-11RA on BaF/3-IL-11RA cells, goat anti-mouse IgG-FITC detection. This is another data set of the same source.
For B6, the IC50 is 4.87 µg/mL.

On to B7, for which the IC50 was 13.8 µg/mL.

Take B1: the 50% inhibitory concentration (IC50) came to 1.68 µg/mL.

On to B8, for which the half-maximal inhibitory concentration (IC50) was 3.58 µg/mL.

The target in the next assay is T3, IL-11-mFc ligand protein. Put plainly: flow cytometry: inhibition of IL-11-mFc binding to GP130 on BaF/3-GP130 cells, goat anti-mouse IgG-FITC detection.
With B6, the half-inhibitory concentration (IC50) is 46.2 µg/mL.

B7 came in with an IC50 of 128 µg/mL.

Turning to B1, the IC50 is 23.5 µg/mL.

B8 returned a concentration for half-maximal inhibition (IC50) of 39.6 µg/mL.

The next assay addresses T6, mouse IL-11 (mouse, UniProt P47873 22-199, limits assumed).
T6 construct: Bought reagent; also called IL-11 (Mouse)
T6 sequence (looked up): T5 sequence (looked up) with N50S, F84L, A94G, A137V, V138I
The experiment in a line: ELISA, mouse IL-11 coated, goat anti-human IgG Fab HRP detection.
On to B1, for which the 50% effective concentration (EC50) came out at 0.0139 µg/mL.

The target in the next assay is T3, IL-11-mFc ligand protein. The experiment in a line: cell-based or functional assay. The source holds these as a separate data set.
For B2, the “IC50 of inhibition of TIMP-1 secretion” value came out at 1.36 µg/mL.

Turning to B3, the “IC50 of inhibition of TIMP-1 secretion” value worked out at 0.453 µg/mL.

For B4, the “IC50 of inhibition of TIMP-1 secretion” value is 0.475 µg/mL.

Consider B5, for which the “IC50 of inhibition of TIMP-1 secretion” value turned out to be 4.6 µg/mL.

Values taken from patent EP4722243A1 (Beijing Dongfang Biotech Co. Ltd., dated 2026).
